{"source": "the DeepSol protein solubility set"}
{"experiment": "soluble on expression in E. coli; label from the status in PepcDB or PDB records"}
{"sequence": "MDGNDINIQKNEFSRDQSALLMMDQHSDHKNHESAIGEPGMSYTASQPALSSTEHQTPLVSEASVAAPQNHLNGNSHESVSEMDRNSVDFAIESVLMKARAYNKMGAPKDPRRKQHNPKSEPKIEPHVTDSSDNQAAMSNKMEAEAPKMESNQNYVSNGSEPPFRFVSISNFDEMKTKKKEVQEELKLEVDSDSEEDDVPEQKTPKESDRCGGCGKFTHEDDLIALEEEKKKEKEKPLMSKKKSHHHKKNDFQWIGCDSCQTWYHFLCSGLEQFEYYLYEKFFCPKCVPHTGHSIRYKVVAPHRYRWYSPNEKHLGIEVGSKTWIEDFITRENTVPSPTDDEVCIVEDGYEFRREFEKLGGADNWGKVFMVKDMDGLNMTMPKPGFDLEDVVKIMGSDYEVDTIDVYNQSTYSMKLDTFRKLFRDTKNRPLLYNFLSLEFSDNNEMKEIAKPPRFVQEISMVNRLWPDVSGAEYIKLLQREEYLPEDQRPKVEQFCLAGMAGSYTDFHVDFGGSSVYYHILKGEKIFYIAAPTEQNFAAYQAHETSPDTTTWFGDIANGAVKRVVIKEGQTLLIPAGWIHAVLTPVDSLVFGGNFLHLGNLEMQMRVYHLENAIRKEIRSEEKFYFPNFELLHWMYMRNVLLEKITEANQEGSDMREQEKNIWTASQIMKAEMERWMDRELRLGPEKNAILPTDDKNKIMISVRKQIEIQTKIQNAKNKPMGLKQKRKSRESAERDDEDYCPSSSTAYKKKYTKKAKKDNDDAPKVKKAKKEEVPEEKVPVPEAAGPSEVTAPLTIKIGMGPTEDQKGVVQIFNNQCTSSGRKVKLNQNVADYCGSHLEARVEEIPEKATKSFRELDNELERCEAVHSGEKIKKVKEPKPPKQPKEKKEKPPPKKKEMSSRDRLMKKLKM", "soluble on expression in E. coli": "not soluble"}
{"sequence": "MPLHVVEQPAFLVAVVPDMVGGRLSSHDKDLLGLARKLAGNDGAVLAVVFGEHKESAFDSAGVDRLLHLSGGEYDGYAPEQRILALRNLENQLAPRHWLFPDSRNGGGELGRRLAAALGERPAGRVWQVEDGRCIGRAGAGREDIQRALPRLLLAAAECAEPVSETRHEVRELHMAEQVARNLPRIEDLGPVAVDPA", "soluble on expression in E. coli": "not soluble"}
{"sequence": "MEKTRANSHLRSQPIDWTIEEVIQYIESNDNSLAVHGDLFRKHEIDGKALLRLNSEMMMKYMGLKLGPALKICNLVNKVNGRDHHHHHH", "soluble on expression in E. coli": "soluble"}
{"sequence": "MSRIEFIRKEEKKYHDFCYENYKLFEEGSWLYKPVKTVIELLPILDERTSPKVLDLGSGVGRNSIPIAKEIKNKNGKVICVDLLDSALDKLKLYSKEYEVEEVIETMKADIGHYDIAKNEYDLIVAVSTLEHVESENVFEKVIKKMASGTKNEGINCIIVNSEVEEIDISTNEKLDAMMEVNMKTKDMLSKLRQSYNGWEIVNQLVKPLEYKIVRDERDVLLKTNAITFAVKKKLEHHHHHH", "soluble on expression in E. coli": "not soluble"}
{"sequence": "MKQHCQKQSTARSTKLQYLAENQNDQPRLLAGSLSHGDSTTGPIKYKDGHQKRTTVVWDGQGTIRDETKSNIIKLTYLYLFPSCGAGSVRELVPFSSYHSFIVTHSTFNITMIALQSKCILPPCLPL", "soluble on expression in E. coli": "not soluble"}
{"sequence": "MTEHLKSNTMVLPLKKGAQKMTTITLKVSEADKTFMKAMAKFEGVSLSELIRTKTLEALEDEYDARVADLAYQEYLEDLEKGVEPITWEEMMHDLGLKDE", "soluble on expression in E. coli": "not soluble"}
{"sequence": "MSAPLKHPNAVVLQPPTVTISPLIRFGRYAALSLGVVYGFFRLRQIREYHADIREWDHEKAVAAAEEAAKKKKWLAKDEMRYLMQVVNIPFEEGVKQFGVADLYKED", "soluble on expression in E. coli": "not soluble"}
{"sequence": "MSLENYLEEELIIGGIEINYLYVCKTKLWYFVRGITMEQESDFVDLGKFLHEKSYFGEEKEVQIGSIKIDFIKKRDVIEIHEVKRGKQMEKAHIMQVLYYIYYLNSLGIKSKAILHYPKLKEIKEIELKENNKEEIKRAIKEIEYIKSLKEPPEPIYQKICKNCAYYELCFIEGHHHHHH", "soluble on expression in E. coli": "soluble"}
{"sequence": "MGSDKIHHHHHHMKMCYNEKRKNMTLRHPGISPTNDSVAKKIFSNPEITWQFIRDMLDLPAKNVTILEGSNIHVLPSLPYSAQDFYTSINVLAELDNGTQVIIEIQVHHQNFFINRLWAYLCSQVNQNLEKIRQREGDTHQSYKHIAPVYAIAIVNSNYFQDDLAFHSFSMREDTTGEALTITNNSQENHLVKMAFLELKKYRETSKDKIRKPWLEFFGNKPFTQQPERAISQAYQLLDYKSWSEEDRKMFSEQRRREEQALLAQDYALEQAEEKGLERGKVEGREEGKLFAFLDMVRQGLLTSEVASQQLGMTVAEFEALL", "soluble on expression in E. coli": "not soluble"}
{"sequence": "MGSDKIHHHHHHMTFNVPDVKPLINDEFAGEAPKRALSYIANKRSAGMPVAGTYCGYAPMEVIRAVGAVPAVLCAFANKTIPAAEAVLPANLCPLIKSSYGFILTDTCPFFALSDAVVAETTCDGKKKMFELIFSHRPMFVMDLPQLPDEVEARANWATMISKLKGFLENTFGTFGTSEGIEAEIQATNIKNRLMRRVFGYAEKKPPLLSWSELYELCFLAQVATTEDLLPVFKEVFERLEEREAKGIYYGAPSSPRVLVTGCPVGGDSTKVFRIIEEAGGVVVAMDSCSGMKPFIADIEEKTGNPIDSVARHYLEIPCSCMTPNTRRLTELDKALAAFQPDAVVEVVLHACHSYNIEAIKIMNYLKEKHNLPYLKIVTDYSEGDVEQIRTRVEALLESI", "soluble on expression in E. coli": "not soluble"}
{"sequence": "TFDIDLQQYGEKLLQNKIGCVVAIEPQTGEILAFISSPTYDPNLLTGRKYSANYKELEKDPYKPLFNRPLMAMYPPGSIFKLAQAAVALQEGVITDKSRFPCDKTLVNCHNHPSPQDLRGAIQWSCNPYFYMVYKKMISQDKNPNKFKDTEINFDEWRHNMLTLGFGQKMLVDLPSSKSGNIPSNAYYDKIYGDLHWKFSTIYSLSIGQGEINVVPIQMANLAALIANKGWYITPHFIKSIGKDGHILEEYKNKHVTSVEPKYFEPIIDGMEQVVLGGTAYWLKIKDIDICGKTGTAENPHGDDHSVYIAFAPKKEPKIAIAVYVENAGFGAMTAAPIAHLMIEKYLKDTITRKPLEDMILNKNLLHKVKVKP", "soluble on expression in E. coli": "not soluble"}
{"sequence": "MPEVSVEKPLSVIPPEFCANANCPFSPKEISVLRIKVRGGVSKEEILQVNSASRPALPRQHSASTVSPLQSSSDELNNDSGIDNRTVGSPSTSEFSPRSTDLFVSPKSIIDEEPPHHPPPPPPVEEKLDQVLIPLKLSRGQDYAPIYRSLEQDTYYDQSPSESEKDEDLGLTNTKRYTENFRSVEKNQYMPVMSARVEATFKQPPPREGVKPFVSRAAQDITHNGESKVENIDLTIELNREQKATVTATKYPRTDFIMEDYHRPQTQILAPAPKKPNSTTRIYHAVDIPFDESPASYYPKQNNGYQRQRRYSASSASKQDGMFTLNVIMGSQPVHKGMGFSTVKRDERVIVESVIVGSPADKAGLLVGDTILSINGEEMSDKYQSGVTRILHEAARVGEADVLILRAPVPAPMLSKQMSTSSSNSSNYDKARSVFTENKSFDSYAEFKRKHTRTSRDSNSSNATRSSRDFNSLPRGTTAQSSLDRKRDTSLSSYRTAKDNFNSSSNRSSGRSEYGDYRVSNYQEKNAPGRLTDFVPEVDRRLSRREQSEEIYSRSQRDEEPRTIRNYHLSNENIARTNLNYDGRRDSEEESTTTTLKRTTLPRSGTAQWKNEYSDGEEVTEKLPVTSRDSSPLRSALKKSSHNYYHQSSDPVAPPPRRYYSTESLQLPKTSSYQRYSEEEDEEIEETYSSMRRHRQEIPRHVDEFHTVGSYGVMPQRSRSQQPARLPRYDSVPDDVDEVSGVSHRFYDRSGNHVRAPRERIHDIQIQRDYGDRAPSRDLDFVRNTYKWEEQLEDTKVTTTTKIYEKESRDWRDVINQQRQAAPGNSADRRGIAATSSSLSNLPSYINRRMEKEREREIEYRRDREYSMPPADPPVITEKYERDEYSRVEERTYPVPVARNKMRREETQMQSSLQQMHSQSSQKDDSVVAVSGKHRCAHCNEELGRGAAMIVESLNLFYHLACFKCYVCKTSLGSGATGADVRVRDGRLHCQTCYSNDRVQLSKV", "soluble on expression in E. coli": "not soluble"}
{"sequence": "MGSDKIHHHHHHMEGIKMRSVVVKEPGQLNIESRPVPVPGAHEVRVKIAFAGICGSDVHIYHGHNPFAKYPRVIGHEFYGIIDAVGEQVSPARIGERVAVDPVVSCGHCYPCSVGRPNVCTQLQVIGVHRDGGFSDYACVPAKNAWRIPEAISDRQATMVEPFTIAANITAQLQPTAQDIALVYGAGPMGLTIIQALKGVYGVKQVIVVDRIAERLQMARENGADLTLDNTDQPLAEQLAQRQLAPTLVIDAACHPAILQEAILLASPAARIGILGFSGEASTLTQQSITSKEISIFSSRLNSGRFPLVIDWMEKGLIRPEALITHCMPLEQVKEAMEIFANDRKTCCKVLLQLG", "soluble on expression in E. coli": "not soluble"}
{"sequence": "MARFLLIIGCATLAALASCESKSGEETPQYWRAILGDICQLPSFPRATGDPTRYVECVRQSSFAADRKDLGIWLLRECLPGYEFVASARRCKTVRSVNKQQELCESANATEYNFCPTASAMQFLVEETREAPRQCACPNGEQNCVCPSPEILEPISAVKKVRRSAQQQPLRFSQYPSCPCPQNQPACTCSTNNQQNEQILVSISCCQQQETTTQAPVQMQPCQCTPTQIQQNCQTTTTQQQYCPQQSAPVVQPQPCPLVQGSGVQNAQYQGICSWMIDPLATDPQSRTHYLQCQPAPNNLFCGRWQRMPCAPGTVFDVQSQVCVWDTNSQPGTLPTPAPYVSTQAPQNAQCGCTGGVQIGSCNQNYQCPGQSVCQVGQNAGQQCMVCCYFRKKARRF", "soluble on expression in E. coli": "not soluble"}
{"sequence": "MTTFIQLHLLTAYPAANLNRDDTGAPKTVVLGGATRLRISSQSLKRAWRTSELFEQALAGHIGIRTGRIAREAAQILVDSGIDAKKAVEYVKNIANCFGKVKEDKKPKDELTNAETEQLVHISPAEFEAVKALARRLAEEKRPATEEEAELLRHDRMAVDIAMFGRMLAKKTDFNVEAACQVAHAFGVSETIIEDDFFTAVDDLRQASAEDAGAGHLGETGFGSALFYTYICIDKDLLVKNLNDNEELANKTLRAFTEAALKVSPTGKQNSFASRAYASWALAEKGTDQPRSLAAAFYEPINGTDQLNVAVKRITSLHKNMNKVYGQRTDTASFDVMNQQGSMEDVLDFICA", "soluble on expression in E. coli": "not soluble"}
{"sequence": "MGSDKIHHHHHHMGEELPVSQPVDQRPLEHQDHCQAAEPAAMDPPAGEDFYEKDFITYLSDENEQEISRAFIVANPGMVKFHFVDKVYEQLALKDKQVDTAIYSEVLPDPPLSQAIKIAKQMKKFAPDTIIAIGGGSALDVSKIARYIYEYSLDQEDGWLDIYDNVSELIKELQQKFVDIRKRIVKFKHETRTSLVMTRSLKAPS", "soluble on expression in E. coli": "not soluble"}
{"sequence": "MDYEIRQEQKRKIAGFHMVGPWEHTVKQGFEQLMTWVDRQRIVPVEWIAVYYDNPDVVPAEKLRCDTVVSVAENFILPDNSEGVIVTAIEGGEYATAVARVEDRDFAKPWERFFDVLEQDSAYQIASAPCFETYLNNGMEDGYWDIEMYIPVQRK", "soluble on expression in E. coli": "not soluble"}
{"sequence": "MSLTLVTELTPPAASAPPFSDHPDHVIAAVTATIVDLPLRRPHFHATGTHATQSLVMVELVTSGGAVGWGEGGTPGGTAFWGGECVETIKLMIDHYLAPAVIGISVFDQERILAAMDRIAANNHFAKAAIDIAVHDAAARLIGISVSQMFGGTARSTVPVLWALAAAAYEADVADAIEQIEAGRHSVFKIKIGKGDAASETRRALETATTIHDAHPDARFVVDLNQAWDESTAMRWLAAFQERDFLFVEQPVPAWNVEGMIRLASRFEIPIMADEGLWDFHDAYELIRRGATDIYAVKIAKGGGLRRAFKAAAVAEAAGVPLYGGMALESSVGTAAGLQLFSALPNLPFGCELIGPRLLAEDLTVQPIAYRDREVVVPSGVGMGVEIDRDRVRSFTRRNKEGHHHHHH", "soluble on expression in E. coli": "soluble"}
{"sequence": "MSILDTEVTLINGEKASMDQWAGHCLLIVNTASECGYTPQLETLEELYEDYAMRGFFVIGVPCNQFGEEEPGKDAQVARRYEEKFGVRFPLLAKSDVNGPNTIELYKKLKGDGPDIEWNFEKFIVAPSGEVVGRFAPSLDPDDMKIINVLEEYLPI", "soluble on expression in E. coli": "soluble"}
